# Measurements: article PMC2637916
# Tests used:
# [1] = biological target: Guanylyl cyclase activating protein 1 (GCAP1), recombinant, with the D6S mutation (UniProt P46065); test: SEC
# [2] = biological target: Guanylyl cyclase activating protein 1 (GCAP1), recombinant, with the D6S mutation (UniProt P46065); test: pulsed-field gradient diffusion NMR
substance,measurement,setting,value
"Guanylyl cyclase activating protein 1 (GCAP1), recombinant, with the D6S mutation (from UniProt P46065 1-205) (natural protein)",stoichiometry N,[1],2
same,stoichiometry N,[2],2
